The chains are these.
B1: Complement factor H (Homo sapiens), P08603 (parent)
chain: MRLLAKIICLMLWAICVAEDCNELPPRRNTEILTGSWSDQTYPEGTQAIYKCRPGYRSLGNVIMVCRKGEWVALNPLRKCQKRPCGHPGDTPFGTFTLTGGNVFEYGVKAVYTCNEGYQLLGEINYRECDTDGWTNDIPICEVVKCLPVTAPENGKIVSSAMEPDREYHFGQAVRFVCNSGYKIEGDEEMHCSDDGFWSKEKPKCVEISCKSPDVINGSPISQKIIYKENERFQYKCNMGYEYSERGDAVCTESGWRPLPSCEEKSCDNPYIPNGDYSPLRIKHRTGDEITYQCRNGFYPATRGNTAKCTSTGWIPAPRCTLKPCDYPDIKHGGLYHENMRRPYFPVAVGKYYSYYCDEHFETPSGSYWDHIHCTQDGWSPAVPCLRKCYFPYLENGYNQNYGRKFVQGKSIDVACHPGYALPKAQTTVTCMENGWSPTPRCIRVKTCSKSSIDIENGFISESQYTYALKEKAKYQCKLGYVTADGETSGSITCGKDGWSAQPTCIKSCDIPVFMNARTKNDFTWFKLNDTLDYECHDGYESNTGSTTGSIVCGYNGWSDLPICYERECELPKIDVHLVPDRKKDQYKVGEVLKFSCKPGFTIVGPNSVQCYHFGLSPDLPICKEQVQSCGPPPELLNGNVKEKTKEEYGHSEVVEYYCNPRFLMKGPNKIQCVDGEWTTLPVCIVEESTCGDIPELEHGWAQLSSPPYYYGDSVEFNCSESFTMIGHRSITCIHGVWTQLPQCVAIDKLKKCKSSNLIILEEHLKNKKEFDHNSNIRYRCRGKEGWIHTVCINGRWDPEVNCSMAQIQLCPPPPQIPNSHNMTTTLNYRDGEKVSVLCQENYLIQEGEEITCKDGRWQSIPLCVEKIPCSQPPQIEHGTINSSRSSQESYAHGTKLSYTCEGGFRISEENETTCYMGKWSSPPQCEGLPCKSPPEISHGVVAHMSDSYQYGEEVTYKCFEGFGIDGPAIAKCLGEKWSHPPSCIKTDCLSLPSFENAIPMGEKKDVYKAGEQVTYTCATYYKMDGASNVTCINSRWTGRPTCRDTSCVNPPTVQNAYIVSRQMSKYPSGERVRYQCRSPYEMFGDEEVMCLNGNWTEPPQCKDSTGKCGPPPPIDNGDITSFPLSVYAPASSVEYQCQNLYQLEGNKRITCRNGQWSEPPKCLHPCVISREIMENYNIALRWTAKQKLYSRTGESVEFVCKRGYRLSSRSHTLRTTCWDGKLEYPTCAKR
partner: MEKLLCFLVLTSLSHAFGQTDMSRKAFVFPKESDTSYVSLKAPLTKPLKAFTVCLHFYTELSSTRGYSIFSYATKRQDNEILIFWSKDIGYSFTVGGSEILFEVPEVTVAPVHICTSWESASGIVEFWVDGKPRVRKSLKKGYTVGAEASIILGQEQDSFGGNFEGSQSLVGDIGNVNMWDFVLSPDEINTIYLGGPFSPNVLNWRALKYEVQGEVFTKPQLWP

In this assay the parent is B1. Conditions: with crp_human CRP.
With Y402H, the “effect of a mutation on the interaction” value was “decreasing interaction strength”.
